In patent US20210008180A1, “FORMULATIONS CONTAINING MUCIN-AFFECTING PROTEASES” (MUCPHARM PTY LTD, priority 2018, published 2021):

What was measured:
[1] = Release of Papain from DC Beads (300-500 μm), azo-casein assay; format: physicochemical; settings: 80 μL, loaded from 200 μL 5 mg/mL Papain, 6 hrs, 5 mL PBS pH 6.5
Experimental: 80 μL of DC Beads® (300-500 μm) were taken in a 1.5 mL centrifuge tube and washed twice with distilled water. 200 μL of a 5 mg/mL Papain solution was added and the mixture incubated at room temperature for 6 hrs with gentle agitation. The beads were then washed twice with distilled water and suspended in 5 mL PBS pH 6.5. The first sample of 250 μL was taken at 30 min, and thereafter samples were taken every hour for the next 16 hrs, with 250 μL PBS being replaced each time. The Papain concentration in the samples was measured by azo-casein assay and the cumulative release of Papain from the DC Beads as a function of time is set out in Graph shown below.

[2] = test system: HT29 cells; experiment: Efficacy of Papain released from DC Beads in Transwell chamber; format: cell-based, human; settings: 5 mg/ml Papain (500 μg/80 μl beads) loaded beads in Transwell chamber; after 3 hours
Experimental: Subsequently, experiments were conducted to determine the efficacy of the Papain released from the beads. In these experiments, HT29 cells (human colorectal cancer cell line) were seeded in 24 well plates. After 24 h, the plates were treated with 5 mg/ml Papain (500 μg/80 μl beads) loaded beads in a Transwell chamber. After every 3 h, the Transwell chamber containing beads was transferred to a fresh well. This process was continued up to 3 days.

B1: Papain: plant-derived mucin-affecting protease enzyme extracted from papaya; loaded into DC Beads 300-500 μm (protein, UniProt P00784 134-345, looked up)
Papain: IPEYVDWRQKGAVTPVKNQGSCGSCWAFSAVVTIEGIIKIRTGNLNEYSEQELLDCDRRSYGCNGGYPWSALQLVAQYGIHYRNTYPYEGVQRYCRSREKGPYAAKTDGVRQVQPYNEGALLYSIANQPVSVVLEAAGKDFQLYRGGIFVGPCGNKVDHAVAAVGYGPNYILIKNSWGTGWGENGYIRIKRGTGNSYGVCGLYTSSFYPVKN
modifications: loaded into DC Beads
notes: plant-derived mucin-affecting protease enzyme extracted from papaya; loaded into DC Beads 300-500 μm
With B1 the “duration of sustained release of Papain” value [1] was “greater than 16 hours” and the “effect of Papain released from the DC Beads on cells” value [2] was “death of all cells”.
